Assay results reported in the DeepSol protein solubility set.

Assay: soluble on expression in E. coli; label from the status in PepcDB or PDB records
In the case of “GQPMNVTLQDDTQTLQEVVVTALGMKRATKALGYAVTEIKSDELNSNVVNPVSALQGKVAGVEISAGDGGLFGSSKILIRGASTLGSNNQPIYVVDGVILDNAIKNGDADWAANDTDWGNELKNLNPDDFESVSVLKGAAATALYGSRGLNGAVVITTKSGKGKK”, the “soluble on expression in E. coli” value is reported as “not soluble”.
With “GREEAPNAEADILSCRLPGVVMTTSPIITNNSINIFVGPGTDISSLAPEFTLTPGATIDPPSGTARDFHSPQQYTVTAADGFWKKKYTVSVIDTELATIYNFEDTLGGQKYYIFVEREGEKVVMEWASGNAGYAMTGVPKTADDYPTFQFANGKTGKCLSLVTRSTGFFGSIMGMPIAAGNLFIGSFDVGNAMSNPLKATKFGLPFRHIPTYLAGYYKYKAGDQFTEGGKPVSGKRDICDIYAIMYETSESVPTLDGTNAFTSPNLVSIARIDDAKETDEWTYFKLPFHMLSGKYIDKEKLTAGKYNVAIVFTSSLEGDHFNGAIGSTLLIDEVELIYRSED” the “soluble on expression in E. coli” value was “soluble”.
For “GSADAEYDVVVLGGGPGGYSAAFAAADEGLKVAIVERYKTLGGVCLNVGCIPSKALLHNAAVIDEVRHLAANGIKYPEPELDIDMLRAYKDGVVSRLTGGLAGMAKSRKVDVIQGDGQFLDPHHLEVSLTAGDAYEQAAPTGEKKIVAFKNCIIAAGSRVTKLPFIPEDPRIIDSSGALALKEVPGKLLIIGGGIIGLEMGTVYSTLGSRLDVVEMMDGLMQGADRDLVKVWQKQNEYRFDNIMVNTKTVAVEPKEDGVYVTFEGANAPKEPQRYDAVLVAAGRAPNGKLISAEKAGVAVTDRGFIEVDKQMRTNVPHIYAIGDIVGQPMLAHKAVHEGHVAAENCAGHKAYFDARVIPGVAYTSPEVAWVGETELSAKASARKITKANFPWAASGRAIANGCDKPFTKLIFDAETGRIIGGGIVGPNGGDMIGEVCLAIEMGCDAADIGKTIHPHPTLGESIGMAAEVALGTCTDLPPQKK”, the “soluble on expression in E. coli” value was “soluble”.
With “GSADETLCQTKVLLDIFTGVRLYLPPSTPDFSRLRRYFVAFDGDLVQEFDMTSATHVLGSRDKNPAAQQVSPEWIWACIRKRRLVAPC” the “soluble on expression in E. coli” value was “soluble”.
In the case of “GSDSSLFETYNVELVRKDGQSLGIRIVGYVGTSHTGEASGIYVKSVIPGSAAYHNGHIQVNDKIVAVDGVNIQGFANHDVVEVLRNAGQVVHLTLVRRKTSSSTSPLEPPSDRGTV”, the “soluble on expression in E. coli” value is reported as “soluble”.
For “GSEDLKKLEEEFDVRLGVYAIDTGADKEISYRENERFAYTSTFKPLAVGAVLQTKSDEELEETITYSEEDLVTYSPITEQHVDEGMTLVEIADAAIRYSDNTAGNLLLEAMGGPDELETILRDIGDETIEMDRYETELNEAKPGDIRDTSTAKAMATTLQQYVLEDVLDADRREVLTNMLINNTTGDALIRAGVPDGWTVGDKTGAGGYGTRNDIGIIWPEGDEEPIVIAIMSSRDEEDADYDDKLIEKATEIVLQELRN”, the “soluble on expression in E. coli” value was “soluble”.
With “GSFTMDDISPSELKTILHSKRANLYYLQHCRVLVNGGRVEYVTDEGRHSHYWNIPIANTTSLLLGTGTSITQAAMRELARAGVLVGFCGGGGTPLFSANEVDVEVSWLTPQSEYRPTEYLQRWVGFWFDEEKRLVAARHFQRARLERIRHSWLEDRVLRDAGFAVDATALAVAVEDSARALEQAPNHEHLLTEEARLSKRLFKLAAQATRYGEFVRAKRGSGGDPANRFLDHGNYLAYGLAATATWVLGIPHGLAVLHGKTRRGGLVFDVADLIKDSLILPQAFLSAMRGDEEQDFRQACLDNLSRAQALDFMIDTLKDVAQRSTVSA” the “soluble on expression in E. coli” value was “soluble”.
With “GSGMKETAAAKFERQHMDSPDLGTTLLEQYCHRTTIGNFSGPYTYCNTTLDQIGTCWPQSAPGALVERPCPEYFNGIKYNTTRNAYRECLENGTWASRVNYSHCEPILDDFQRKYDLHY” the “soluble on expression in E. coli” value was “soluble”.
With “GSGSAMIEARQVSELSTRIISSVQMLSNAQNEQERKEAGRVLFEQLESLLTHIKELGGESFDSKLLDALESNVQNVINNLAELGVTVERKLWLAKEIDTRVEEMRLLSEELEQLTRTQVQNTSTIAVANVTHIYDLLEANKKDQVYQALDALVEVDLDLTERLHELHLLAFKMLNQIEEARTLTNVDRIQQIQTAFENNLKIMKRRVLAVEDPTRSKQMSQLLTELGKRQVVFTILLQQYENNEQSQQLMQKTLELFSELNSTVNKLVDDSNKTTT” the “soluble on expression in E. coli” value was “soluble”.
With “GSHGLCKNLLQEYAQKMNYAIPLYQCQKVETLGRVTQFTCTVEIGGIKYTGAATRTKKDAEISAGRTALLAIQSDT” the “soluble on expression in E. coli” value was “soluble”.
With “GSHMAITGTIAAIATAIVPQQGSVGIVRVSGSQAIAIAQTLFDAPGKQVWESHRILYGYIRHPQTRQIVDEALLLLMKAPRSYTREDVVEFHCHGGIIAVQQVLQLCLESGARLAQPGEFTLRAFLNGRLDLTQAESIADLVGARSPQAAQTALAGLQGKLAHPIRQLRANCLDILAEIEARIDFEEDLPPLDDEAIISDIENIAAEISQLLATKDKGELLRTGLKVAIVGRPNVGKSSLLNAWSQSDRAIVTDLPGTTRDVVESQLVVGGIPVQVLDTAGIRETSDQVEKIGVERSRQAANTADLVLLTIDAATGWTTGDQEIYEQVKHRPLILVMNKIDLVEKQLITSLEYPENITQIVHTAAAQKQGIDSLETAILEIVQTGKVQAADMDLAINQRQAAALTQAKMSLEQVQATITQQLPLDFWTIDLRGAIQALGEITGEEVTESVLDRIFSRFCIGK” the “soluble on expression in E. coli” value was “soluble”.
In the case of “GSHMASMTGGQQMGRGSDSSNAITIENNTLWTGAKPSANCVIKEGEDSPDCKLTLVLVKNGGLINGYITLMGASEYTNTLFKNNQVTIDVNLAFDNTGQIITYLSSLKSNLNFKDNQNMATGTITSAKGFMPSTTAYPFITYATETLNEDYIYGECYYKSTNGTLFPLKVTVTLNRRMLASGMAYAMNFSWSLNAEEAPETTEVTLITSPFFFSYIREDD”, the “soluble on expression in E. coli” value is reported as “soluble”.
For “GSHMDPLMQKIDISENPDKIYFIRREDGTVHRGQVLQSRTTENAAAPDEYYVHYVGLNRRLDGWVGRHRISDNADDLGGITVLPAPPLAPDQ”, the “soluble on expression in E. coli” value was “soluble”.
For “GSHMGQLGGEEWTRHGSFVNKPTRGWLHPNDKVMGPGVSYLVRYMGCVEVLQSMRALDFNTRTQVTREAISLVCEAVPGAKGATRRRKPCSRPLSSILGRSNLKFAGMPITLTVSTSSLNLMAADCKQIIANHHMQSISFASGGDPDTAEYVAYVAKDPVNQRACHILECPEGLAQDVISTIGQAFELRFKQYLR”, the “soluble on expression in E. coli” value was “soluble”.
With “GSHMHAKVGDYLVVKGTTTERHDQHAEIIEVRSADGSPPYVVRWLVNGHETTVYPGSDAVVVTATEHAEAEKRAAARAGHAAT” the “soluble on expression in E. coli” value was “soluble”.
With “GSHMKITYPLPPNLPEQLPLLTNCQLEDEAILENHLYQQIDLPNQEVRNLVFRDAVFDHLSLANGQFASFDCSNVRFEACDFSNVEWLSGSFHRVTFLRCNLTGTNFADSYLKDCLFEDCKADYASFRFANFNLVHFNQTRLVESEFFEVTWKKLLLEACDLTESNWLNTSLKGLDFSQNTFERLTFSPNYLSGLKVTPEQAIYLASALGLVIT” the “soluble on expression in E. coli” value was “soluble”.
For “GSHMNLKEQLCFSLYNAQRQVNRYYSNKVFKKYNLTYPQFLVLTILWDESPVNVKKVVTELALDTGTVSPLLKRMEQVDLIKRERSEVDQREVFIHLTDKSETIRPELSNASDKVASASSLSQDEVKELNRLLGKVIHAFDE”, the “soluble on expression in E. coli” value was “soluble”.
In the case of “GSHMRLDKFIAQQLGVSRAIAGREIRGNRVTVDGEIVRNAAFKLLPEHDVAYDGNPLAQQHGPRYFMLNKPQGYVCSTDDPDHPTVLYFLDEPVAWKLHAAGRLDIDTTGLVLMTDDGQWSHRITSPRHHCEKTYLVTLESPVADDTAEQFAKGVQLHNEKDLTKPAVLEVITPTQVRLTISEGRYHQVKRMFAAVGNHVVELHRERIGGITLDADLAPGEYRPLTEEEIASVV”, the “soluble on expression in E. coli” value is reported as “soluble”.
In the case of “GSHMRSRRVDVMDVMNRLILAMDLMNRDDALRVTGEVREYIDTVKIGYPLVLSEGMDIIAEFRKRFGCRIIAAFKVADIPETNEKICRATFKAGADAIIVHGFPGADSVRACLNVAEEMGREVFLLTEMSHPGAEMFIQGAADEIARMGVDLGVKNYVGPSTRPERLSRLREIIGQDSFLISPGVGAQGGDPGETLRFADAIIVGRSIYLADNPAAAAAGIIESIKDLRIPEDPAANKARKEAELAAATAEQ”, the “soluble on expression in E. coli” value is reported as “soluble”.
With “GSHMSNAKTKLGITKYSIVTNSNDSVTLRLMTEHDLAMLYEWLNRSHIVEWWGGEEARPTLADVQEQYLPSVLAQESVTPYIAMLNGEPIGYAQSYVALGSGDGWWEEETDPGVRGIDQLLANASQLGKGLGTKLVRALVELLFNDPEVTKIQTDPSPSNLRAIRCYEKAGFERQGTVTTPDGPAVYMVQTRQAFERTRSDA” the “soluble on expression in E. coli” value was “soluble”.
